Experimental data from patent US20090317330A2, “DIAGNOSIS AND TREATMENT OF DISEASES INVOLVING PLATELET ACTIVATION” (Baker IDI Heart and Diabetes Institute Holdings Limited, priority 2007, published 2009).

B1: IL-1β: rat-recombinant interleukin-1β microinjected into the striatum (protein, UniProt Q63264 117-268, looked up)
Interleukin-1 beta: VPIRQLHCRLRDEQQKCLVLSDPCELKALHLNGQNISQQVVFSMSFVQGETSNDKIPVALGLKGLNLYLSCVMKDGTPTLQLESVDPKQYPKKKMEKRFVFNKIEVKTKVEFESAQFPNWYISTSQAEHRPVFLGNSNGRDIVDFTMEPVSS
B2: LT-α: rat-recombinant lymphotoxin-α microinjected into the striatum (protein, UniProt Q06332 34-202, looked up)
Lymphotoxin-alpha: LSGVRFSASRTAHQPPQKHLTHGLLKPAAHLVGYPSKQNSLLWRANTDRAFLRHGFSLNNNSLLIPTSGLYFVYSQVVFSGESCSPRAIPTPIYLAHEVQLFSSQYPFHVPLLSAQKSVYPGLQGPWVRSMYQGAVFLLSKGDQLSTHTDGISHLHFSPSTVFFGAFAL

System: platelet adhesion to brain endothelium
Assay: Platelet and leukocyte immunohistochemistry after intrastriatal cytokine microinjection (rat)
Format: in vivo
Conditions: versus vehicle, TNF at 24 h
Experimental: Rat-recombinant TNF and IL-1[…] were obtained from the National Institute for Biological Standards and Controls (NIBSC, Potters Bar, UK). Rat-recombinant LT-[…] and mouse-recombinant TNF was purchased from R&D Systems (Abingdon, UK). The cytokines were dissolved in endotoxin-free saline (vehicle). The cytokines contained a maximum of 100 IU endotoxin/mg cytokine (corresponding to 10 ppm by weight), which, in view of previous studies, was considered negligible in the context of these experiments.
12-week-old male Wistar rats or 8-week-old NMRI mice were used for the injection of the recombinant cytokines (Charles River, Margate, UK). Both rats and mice responded to the injection of cytokines in an identical manner. […]
Frozen, 10 μm-thick serial coronal sections were cut from tissue blocks. […] The numbers of positive cells present in the brain were quantitated. For each tissue section, 4 representative fields were chosen and the average number of positive cells was calculated and expressed as number of cells per mm^2.
The p55 mouse anti-rat platelet GPIIa monoclonal antibody was a kind gift from Kirin Brewery Co Ltd, Takasaki, Japan. The numbers of platelet positive elements present in the brain were quantitated. For each tissue section, 6 representative fields were chosen and the average number of positive elements was calculated and expressed as number of discrete elements per mm^2.

Molecule | number of platelet positive elements
B1 | did not increase
B2 | did not increase
